Starred links: 1 amine or outer side, 2 acyl side, 3 side chain; linkers in the order of their positions; H or OH if unused. Positions of bridges follow the written chain, without caps; N, C: chain ends. Non-standard residues stand in square brackets, D forms with d. Primed or numbered codes have the meaning given here. *: point of attachment. B5(18) = 2,2-bis(4-pentenyl)glycine (2-amino-2-(pent-4-en-1-yl)hept-6-enoic acid), stitching residue, C=CCCCC(CCCC=C)(N[*:1])C(=O)[*:2]; B5(24) = 2-amino-2-(pent-4-en-1-yl)hept-6-enoic acid, 2,2-bis(4-pentenyl)glycine (stitching residue), C=CCCCC(CCCC=C)(N[*:1])C(=O)[*:2]; B5(4) = 2,2-bis(4-pentenyl)glycine = 2-amino-2-(pent-4-en-1-yl)hept-6-enoic acid (stitching residue), C=CCCCC(CCCC=C)(N[*:1])C(=O)[*:2]; B5(3) = 2,2-bis(4-pentenyl)glycine (stitching residue), C=CCCCC(CCCC=C)(N[*:1])C(=O)[*:2]; B5 = 2-amino-2-(pent-4-en-1-yl)hept-6-enoic acid, C=CCCCC(CCCC=C)(N[*:1])C(=O)[*:2]; Phe(F5) = N[C@@H](Cc1c(F)c(F)c(F)c(F)c1F)C(=O)O; Phe(3,4-F2) = N[C@@H](Cc1ccc(F)c(F)c1)C(=O)O; Phe(3-F) = N[C@@H](Cc1cccc(F)c1)C(=O)O; Phe(3-Me) = Cc1cccc(C[C@H](N)C(=O)O)c1; Phe(4-F) = N[C@@H](Cc1ccc(F)cc1)C(=O)O; 2Nal = N[C@@H](Cc1ccc2ccccc2c1)C(=O)O; Bta = N[C@@H](Cc1csc2ccccc12)C(=O)O; αAllylPro = C=CC[C@@]1(C(=O)O)CCCN1; Azidoacetyl = [N-]=[N+]=NCC(=O)*; hPhe = N[C@@H](CCc1ccccc1)C(=O)O; 3Pal = N[C@@H](Cc1cccnc1)C(=O)O; S8 = C=CCCCCCC[C@](C)(N)C(=O)O; Nicotinoyl = O=C(c1cccnc1)*
T1: full-length beta-Catenin (Uniprot ID P35222) (Homo sapiens (Human), UniProt P35222 1-781)
T1 construct: The assay protocols call it full-length; also called B-Catenin; bCat
T1 sequence: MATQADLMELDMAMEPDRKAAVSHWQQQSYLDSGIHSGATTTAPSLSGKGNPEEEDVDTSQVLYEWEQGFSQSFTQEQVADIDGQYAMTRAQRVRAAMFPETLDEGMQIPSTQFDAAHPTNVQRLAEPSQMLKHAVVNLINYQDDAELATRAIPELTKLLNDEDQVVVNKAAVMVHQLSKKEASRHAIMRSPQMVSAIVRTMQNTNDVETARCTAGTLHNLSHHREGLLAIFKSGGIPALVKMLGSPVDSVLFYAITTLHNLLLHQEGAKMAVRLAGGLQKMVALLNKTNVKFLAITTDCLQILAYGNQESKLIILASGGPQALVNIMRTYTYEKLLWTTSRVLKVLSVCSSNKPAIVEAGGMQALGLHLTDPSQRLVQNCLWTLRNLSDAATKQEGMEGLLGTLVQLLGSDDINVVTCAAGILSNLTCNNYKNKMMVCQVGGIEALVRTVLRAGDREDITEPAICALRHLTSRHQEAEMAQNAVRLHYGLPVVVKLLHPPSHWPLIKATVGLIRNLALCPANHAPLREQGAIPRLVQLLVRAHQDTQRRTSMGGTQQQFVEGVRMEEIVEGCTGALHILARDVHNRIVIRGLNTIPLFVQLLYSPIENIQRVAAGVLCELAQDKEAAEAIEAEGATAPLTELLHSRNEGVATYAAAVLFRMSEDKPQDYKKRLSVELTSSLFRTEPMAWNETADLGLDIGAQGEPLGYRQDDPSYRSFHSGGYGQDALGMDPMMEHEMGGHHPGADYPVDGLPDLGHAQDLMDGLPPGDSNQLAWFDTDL

T2: full-length beta-Catenin (Uniprot ID P35222) (Homo sapiens (Human), UniProt P35222 1-781)
T2 construct: Used full-length in the FP and AlphaScreen assays; also called B-Catenin; bCat
T2 sequence: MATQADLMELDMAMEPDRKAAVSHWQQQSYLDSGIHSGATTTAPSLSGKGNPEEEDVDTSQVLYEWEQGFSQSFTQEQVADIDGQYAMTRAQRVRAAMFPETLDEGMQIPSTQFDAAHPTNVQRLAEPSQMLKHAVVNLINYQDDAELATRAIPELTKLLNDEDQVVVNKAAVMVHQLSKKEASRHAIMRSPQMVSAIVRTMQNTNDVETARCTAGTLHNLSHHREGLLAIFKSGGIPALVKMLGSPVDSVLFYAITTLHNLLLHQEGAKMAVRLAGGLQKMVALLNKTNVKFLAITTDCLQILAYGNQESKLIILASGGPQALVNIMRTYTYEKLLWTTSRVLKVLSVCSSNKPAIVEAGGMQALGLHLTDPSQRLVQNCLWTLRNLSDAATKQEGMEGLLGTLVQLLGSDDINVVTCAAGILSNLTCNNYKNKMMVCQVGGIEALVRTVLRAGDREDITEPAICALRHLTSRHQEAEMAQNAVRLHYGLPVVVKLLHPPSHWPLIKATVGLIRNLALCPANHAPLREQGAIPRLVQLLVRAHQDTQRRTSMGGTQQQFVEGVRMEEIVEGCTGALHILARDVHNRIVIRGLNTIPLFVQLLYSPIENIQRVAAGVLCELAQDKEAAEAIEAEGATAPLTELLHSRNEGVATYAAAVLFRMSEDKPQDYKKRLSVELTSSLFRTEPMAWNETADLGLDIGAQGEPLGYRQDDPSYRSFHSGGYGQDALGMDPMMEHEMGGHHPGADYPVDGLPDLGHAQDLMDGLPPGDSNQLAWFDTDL

T3: full-length beta-Catenin (Uniprot ID P35222) (Homo sapiens (Human), UniProt P35222 1-781)
T3 construct: The assay text says 'full-length beta-Catenin (Uniprot ID P35222)'; also called bCat; B-Catenin
T3 sequence: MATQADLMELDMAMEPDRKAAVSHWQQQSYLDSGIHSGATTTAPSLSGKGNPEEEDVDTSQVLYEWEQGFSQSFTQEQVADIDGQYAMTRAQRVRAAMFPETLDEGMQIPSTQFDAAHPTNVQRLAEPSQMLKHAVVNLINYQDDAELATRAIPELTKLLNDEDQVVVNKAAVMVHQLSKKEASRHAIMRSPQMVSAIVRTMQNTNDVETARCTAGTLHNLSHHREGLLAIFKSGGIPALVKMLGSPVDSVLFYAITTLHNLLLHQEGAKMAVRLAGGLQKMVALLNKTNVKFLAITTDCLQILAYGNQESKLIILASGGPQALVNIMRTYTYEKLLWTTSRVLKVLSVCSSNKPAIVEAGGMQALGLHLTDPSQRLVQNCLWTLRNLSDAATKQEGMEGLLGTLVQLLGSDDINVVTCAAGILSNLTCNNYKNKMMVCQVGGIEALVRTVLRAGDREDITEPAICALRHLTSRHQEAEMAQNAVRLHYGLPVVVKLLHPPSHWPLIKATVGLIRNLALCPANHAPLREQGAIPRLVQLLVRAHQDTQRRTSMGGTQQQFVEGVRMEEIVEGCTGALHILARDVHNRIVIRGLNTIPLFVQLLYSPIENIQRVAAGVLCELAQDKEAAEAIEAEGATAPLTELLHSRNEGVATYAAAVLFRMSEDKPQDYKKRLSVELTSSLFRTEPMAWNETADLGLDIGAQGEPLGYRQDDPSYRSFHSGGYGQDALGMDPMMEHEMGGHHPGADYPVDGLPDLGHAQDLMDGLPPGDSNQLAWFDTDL


Key:
[1] = biological target: T1, full-length beta-Catenin (Uniprot ID …); assay: AlphaScreen competition; full-length beta-catenin with biotin-labelled TCF4 10-53 peptide as competitor
Procedure: (§1) Equal volume of the titrated peptide was added to the plate and incubated for 15 minutes at 20° C. Then 4 uL of donor and 4 uL acceptor beads at 10 ug/mL were added to the plate, for a 16 uL reaction pool and protected from light for 60 minutes at 20° C. prior to read. Reads were performed on a CLARIOstar plate reader (BMG Labtech) in duplicate, and data were fitted to a 1:1 binding model with hill slope using an in-house script. All provided concentrations are final concentrations.

[2] = biological target: T2, full-length beta-Catenin (Uniprot ID …); assay: AlphaScreen (nickel chelate) competition; full-length beta-catenin + biotin-TCF4(10-53) probe as competitor; peptide titrated
Procedure: as §1

[3] = biological target: T3, full-length beta-Catenin (Uniprot ID …); assay: fluorescence polarization competition; full-length beta-catenin, competitor 5FAM-TCF4(10-53) probe
Procedure: The plate was incubated protected from light for 60 minutes at 20° C. prior to read. Reads were performed on a CLARIOstar plate reader (BMG Labtech) in duplicate, and data were fitted to a 1:1 binding model with hill slope using an in-house script. All provided concentrations are final concentrations.

EC50 [1] [µM] | Binder | other results
3.81 | Ac-[αAllylPro]DA[B5(4)]D[Phe(3-F)]AAFV[S8]FWQ-NH2 (staple 1-4, 4-11, Stapled (stitched) peptide; also called Ac-PL3-Asp-Ala-B5-Asp-3FF-Ala-Ala-Phe-Val-S8-Phe-Trp-Gln-NH2) [I-257] | –
4.18 | Ac-[αAllylPro]DA[B5]D[Phe(3,4-F2)]AAFV[S8]FWQ-NH2 (staple 1-4, 4-11, Stapled (stitched) peptide; also called Ac-PL3-Asp-Ala-B5-Asp-34FF-Ala-Ala-Phe-Val-S8-Phe-Trp-Gln-NH2) [I-259] | –
2.35 | Ac-[αAllylPro]DA[B5(4)]DYAAFV[S8]FWQ-NH2 (staple 1-4, 4-11, Stapled (stitched) peptide; also called Ac-PL3-Asp-Ala-B5-Asp-Tyr-Ala-Ala-Phe-Val-S8-Phe-Trp-Gln-NH2) [I-274] | –
3.05 | XEAXDDAAFVXFWQ (not fully specified; N-terminal Ac; PL3 at 1; B5 at 4; S8 at 11; C-terminal NH2; staples PL3(1)-B5(4) and B5(4)-S8(11) by olefin metathesis, Stapled (stitched) peptide; also called Ac-PL3-Glu-Ala-B5-Asp-Asp-Ala-Ala-Phe-Val-S8-Phe-Trp-Gln-NH2) [I-280] | –
4.96 | XEAXDDAAFVXFWQ (not fully specified; N-terminal Ac; PL3 at 1; B5 at 4; S8 at 11; C-terminal NH2; staples PL3(1)-B5(4) and B5(4)-S8(11) by olefin metathesis, Stapled (stitched) peptide; also called Ac-PL3-Glu-Ala-B5-Asp-Asp-Ala-Ala-Phe-Val-S8-Phe-Trp-Gln-NH2) [I-279] | –
6.26 | XDAXEDAAFVXFWQ (not fully specified; N-terminal Ac; PL3 at 1; B5 at 4; S8 at 11; C-terminal NH2; staples PL3(1)-B5(4) and B5(4)-S8(11) by olefin metathesis, Stapled (stitched) peptide; also called Ac-PL3-Asp-Ala-B5-Glu-Asp-Ala-Ala-Phe-Val-S8-Phe-Trp-Gln-NH2) [I-281] | –
4.35 | Ac-[αAllylPro]DA[B5(4)]DDAAFV[S8]NWQ-NH2 (staple 1-4, 4-11, Stapled (stitched) peptide; also called Ac-PL3-Asp-Ala-B5-Asp-Asp-Ala-Ala-Phe-Val-S8-Asn-Trp-Gln-NH2) [I-284] | –
3.53 | XDAXEDAAFVXFWQ (not fully specified; N-terminal Ac; PL3 at 1; B5 at 4; S8 at 11; C-terminal NH2; staples PL3(1)-B5(4) and B5(4)-S8(11) by olefin metathesis, Stapled (stitched) peptide; also called Ac-PL3-Asp-Ala-B5-Glu-Asp-Ala-Ala-Phe-Val-S8-Phe-Trp-Gln-NH2) [I-282] | –
2.93 | Ac-[αAllylPro]DA[B5]D[Phe(4-F)]AAFV[S8]FWQ-NH2 (staple 1-4, 4-11, Stapled (stitched) peptide; also called Ac-PL3-Asp-Ala-B5-Asp-4FF-Ala-Ala-Phe-Val-S8-Phe-Trp-Gln-NH2) [I-258] | –
9.54 | Ac-[αAllylPro]DA[B5(4)]DDAAFV[S8]DWQ-NH2 (staple 1-4, 4-11, Stapled (stitched) peptide; also called Ac-PL3-Asp-Ala-B5-Asp-Asp-Ala-Ala-Phe-Val-S8-Asp-Trp-Gln-NH2) [I-283] | –
– | Ac-[αAllylPro]DA[B5(4)][3Pal]EAAFV[S8]FWQ-NH2 (staple 1-4, 4-11, Stapled peptide composition) [I-213] | EC50 [2]: 8.05 µM
– | Nicotinoyl-[αAllylPro]DI[B5]DEAAFQ[S8]F[Bta]Q-NH2 (staple 1-4, 4-11, Stapled peptide composition; N-terminal cap Nic) [I-598] | EC50 [3]: 0.845 µM
– | XDKXDEAAFQXFXQ (not fully specified; Ac-PL3-Asp-[AzAc]Lys-B5-Asp-Glu-Ala-Ala-Phe-Gln-S8-Phe-BztA-Gln-NH2; stapled PL3(1)-B5(4) and B5(4)-S8(11) by olefin metathesis, Stapled peptide composition; same description as I-590, earlier eluting HPLC peak (staple isomer)) [I-589] | EC50 [3]: 0.048 µM
– | Ac-[αAllylPro]DK(Azidoacetyl)[B5(4)]DEAAFQ[S8]F[Bta]Q-NH2 (staple 1-4, 4-11; not fully specified, Stapled peptide composition) [I-590] | EC50 [3]: 0.045 µM
– | Ac-[αAllylPro]DA[B5(18)]DEAA[Phe(3,4-F2)]A[S8]F[2Nal]A-NH2 (staple 1-4, 4-11, Stapled peptide composition) [I-185] | EC50 [2]: 2.66 µM
– | Ac-[αAllylPro]FI[B5(24)]DEAADQ[S8]F[Bta]Q-NH2 (staple 1-4, 4-11, Stapled peptide composition) [I-588] | EC50 [3]: 5 µM
– | Ac-[αAllylPro]DI[B5]DDAAFQ[S8]F[Bta]H-NH2 (staple 1-4, 4-11; not fully specified, Stapled peptide composition) [I-580] | EC50 [3]: 0.114 µM
– | Ac-[αAllylPro][Phe(3-Me)]A[B5(3)]DEAAFV[S8]FWQ-NH2 (staple 1-4, 4-11, Stapled peptide composition) [I-203] | EC50 [2]: 5.99 µM
– | Ac-[αAllylPro]DA[B5(4)]DEAAFV[S8][Phe(F5)]WQ-NH2 (staple 1-4, 4-11, Stapled peptide composition) [I-183] | EC50 [2]: 3.77 µM
– | Ac-[αAllylPro]DA[B5(4)][hPhe]EAAFV[S8]FWQ-NH2 (staple 1-4, 4-11, Stapled peptide composition; this is the later-eluting isomer composition) [I-197] | EC50 [2]: 6.15 µM
